Source: the RNAGym collection of RNA variant scans (doi:10.1073/pnas.2313332121)
Variants at the floor of the assay were thinned out.

B1: TPR 5TU (parent)
chain: GGAUCUUCUCGAUCUAACAAAAAAGACAAAUCUGCCACAAAGCUUGAGAGCAUCUUCGGAUGCAGAGGCGGCAGCCUUCGGUGGCGCGAUAGCGCCAACGUUCUCAACUAUGACACGCAAAACGCGUGCUCCGUUGAAUGGAGUUUAUCAUG

Variants of: B1
Assay: polymerase ribozyme fitness, log enrichment relative to wild type (log ratio); higher = more active; in vitro selection for triplet polymerase activity
In short: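 For each subunit of a heterodimeric triplet polymerase ribozyme, a mutant library was built by PCR and transcribed, then taken through a single in vitro selection round in triplicate. Selection involved annealing to a biotinylated primer, the partner subunit and triplets, incubation frozen at −7 °C, gel excision of extended constructs, capture on streptavidin beads and RT-PCR. Genotypes were retained after Illumina sequencing of inputs and outputs only with ≥10 input reads and ≥1 read in each output. Fitness is defined as the logarithm of a genotype's enrichment relative to wild-type enrichment, using inverse-variance-weighted averages across replicates, with the logarithm taken to base 2.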

First: A60G G70A U78C U130A
Second: G62A C69U
The “polymerase ribozyme fitness (log ratio)” value of the first is lower: no more than -4.2 for the first, -2.82 for the second.

Going from A60U G92U G141C to A60G G68U G80C U139A, the “polymerase ribozyme fitness (log ratio)” value falls from -2.82 to no more than -4.2.

Going from A60G U104G G136U U144C to U61A G124C, the “polymerase ribozyme fitness (log ratio)” value rises from -3.29 to -2.

First: A60C C103A
Second: A60C C85A C125G U144G
The “polymerase ribozyme fitness (log ratio)” value of the first is lower: no more than -4.2 for the first, -2.67 for the second.

U61G C75G G88U A89U U101A G140C and A60U G81U C85U G92U C93G C96A C103U G128A cannot be ordered by “polymerase ribozyme fitness (log ratio)” value: no more than -4.2 for the first, no more than -4.2 for the second.

First: A60G U77G C87U C132G
Second: A60C C93U C123A
The “polymerase ribozyme fitness (log ratio)” value of the first is lower: no more than -4.2 for the first, -1.12 for the second.

Going from U61A C87U G92A A106G A122U to A60G G84A C118A, the “polymerase ribozyme fitness (log ratio)” value rises from -2.84 to -0.875.

U61C G81C C95G C123U A142G and A60C G81A C87A G133C G143A U148A cannot be ordered by “polymerase ribozyme fitness (log ratio)” value: no more than -4.2 for the first, no more than -4.2 for the second.

A60U C63A C79G C96U A122U C123U and U61A A66U U82C G92C C95G cannot be ordered by “polymerase ribozyme fitness (log ratio)” value: no more than -4.2 for the first, no more than -4.2 for the second.

Going from G62A C93G U130C to U61A C79G U82C C132G, the “polymerase ribozyme fitness (log ratio)” value falls from -3.01 to no more than -4.2.

First: U61G G136C
Second: U61A G65A G81U C85U U102G
The “polymerase ribozyme fitness (log ratio)” value of the first is higher: -2.91 for the first, no more than -4.2 for the second.

U61A C87U U102C C103G U130C and U61G A66C A150G cannot be ordered by “polymerase ribozyme fitness (log ratio)” value: no more than -4.2 for the first, no more than -4.2 for the second.

Compared with G59U G152C, G59U C93A G133A A138U G141A is lower in “polymerase ribozyme fitness (log ratio)” value: -2.8 for the first, no more than -4.2 for the second.

A60C G88C and U61A C75U C125A G128A A142U A147G cannot be ordered by “polymerase ribozyme fitness (log ratio)” value: no more than -4.2 for the first, no more than -4.2 for the second.

Going from G62A A64U C69U C76U G84A C105G C116G to G59U G124C U134G U146A, the “polymerase ribozyme fitness (log ratio)” value rises from no more than -4.2 to -3.17.

Compared with A60U G84U C95G, G62A U82C C95A U101C U148A is lower in “polymerase ribozyme fitness (log ratio)” value: 0.318 for the first, no more than -4.2 for the second.

First: U61A G88U
Second: A60U C132U
The “polymerase ribozyme fitness (log ratio)” value of the first is lower: no more than -4.2 for the first, -0.719 for the second.

U61C C69U G70U G86U A107C and G62A A66G G86U A121G U127C cannot be ordered by “polymerase ribozyme fitness (log ratio)” value: no more than -4.2 for the first, no more than -4.2 for the second.

Compared with A60C C76A G92U C95A U145G C149G, A60G U144A is higher in “polymerase ribozyme fitness (log ratio)” value: no more than -4.2 for the first, -0.159 for the second.

A60U U61A C69G C96U and U61G C87A A150G cannot be ordered by “polymerase ribozyme fitness (log ratio)” value: no more than -4.2 for the first, no more than -4.2 for the second.

First: A60G C75G
Second: G59U C85U A150U
The “polymerase ribozyme fitness (log ratio)” value of the first is lower: -2.36 for the first, 1.1 for the second.

First: G59U U102G
Second: U61G C75U U144C
The “polymerase ribozyme fitness (log ratio)” value of the first is lower: -3.26 for the first, -1.52 for the second.

Going from A60U G84U to A60G G128U, the “polymerase ribozyme fitness (log ratio)” value falls from -1.58 to -2.75.

G59U C69G G88C C125A and G59U U90G A91G C95A G126C U146G cannot be ordered by “polymerase ribozyme fitness (log ratio)” value: no more than -4.2 for the first, no more than -4.2 for the second.

U61G C69G U82A C95A A122U U148C and U61A A64C G71A G86A A91C C93U C118G cannot be ordered by “polymerase ribozyme fitness (log ratio)” value: no more than -4.2 for the first, no more than -4.2 for the second.

Compared with U61A C85U A97C A120G, G62A A73C C75G C87U C103G C132G U145G U146A is lower in “polymerase ribozyme fitness (log ratio)” value: -3.26 for the first, no more than -4.2 for the second.

First: U61G A89U C95A C99A U109C G136A U148G C149A
Second: U61G C95G
The “polymerase ribozyme fitness (log ratio)” value of the first is lower: no more than -4.2 for the first, -2.32 for the second.

Compared with U61G C95U, U61A G143C is lower in “polymerase ribozyme fitness (log ratio)” value: -2.07 for the first, -2.62 for the second.

Compared with U61A G68A, U61G U101C is higher in “polymerase ribozyme fitness (log ratio)” value: no more than -4.2 for the first, -2.61 for the second.

U61A G84U C114U and G62A G140A are within 0.2 log units of each other in “polymerase ribozyme fitness (log ratio)” value: -3.85 for the first, -3.95 for the second.

First: A60U C131A
Second: G59U A91U G141A
The “polymerase ribozyme fitness (log ratio)” value of the first is higher: -2.81 for the first, no more than -4.2 for the second.

First: U61A A97G G136A
Second: G59U G94A A98G
The “polymerase ribozyme fitness (log ratio)” value of the first is higher: -0.653 for the first, -1.07 for the second.

Compared with A60G C105G U145G, U61A U82A is higher in “polymerase ribozyme fitness (log ratio)” value: -1.64 for the first, -1.03 for the second.

Compared with A60G C93G A147G, G59U A120U A122U is higher in “polymerase ribozyme fitness (log ratio)” value: -4.1 for the first, -0.451 for the second.

Compared with G59U G84U, G59U C69U C87G C105G C129A G141A is lower in “polymerase ribozyme fitness (log ratio)” value: -2.72 for the first, no more than -4.2 for the second.

A60G C99U A150C and U61A C75G are within 0.2 log units of each other in “polymerase ribozyme fitness (log ratio)” value: -4.02 for the first, -3.89 for the second.

Compared with A60U C69A, G62C A113U G117A A137C is lower in “polymerase ribozyme fitness (log ratio)” value: -0.294 for the first, no more than -4.2 for the second.

Compared with A60G C93G, G62A C69U G92C is lower in “polymerase ribozyme fitness (log ratio)” value: -3.44 for the first, -3.74 for the second.

First: G62C G94C
Second: A60C G81C C87A
The “polymerase ribozyme fitness (log ratio)” value of the first is higher: -2.03 for the first, no more than -4.2 for the second.

First: U61A C96G
Second: U61G A64C C75G C93U
The “polymerase ribozyme fitness (log ratio)” value of the first is higher: -2.6 for the first, no more than -4.2 for the second.

Compared with A60G U139C G141C U144A, A60U G80A C85A C93A is lower in “polymerase ribozyme fitness (log ratio)” value: -4.04 for the first, no more than -4.2 for the second.

Going from U61C G92A A120C C123A U144C to U61A C87U, the “polymerase ribozyme fitness (log ratio)” value rises from no more than -4.2 to -2.83.
